In US11939397B2, “ENTPD2 antibodies, combination therapies, and methods of using the antibodies and combination therapies” (Novartis AG, priority 2018, dated 2024):

Legend:
[1] = system: human ENTPD2 engineered B16LM3 clone B5 tumor; assay: Human ENTPD2 engineered B16LM3 clone B5 xenograft model, combination with A2AR antagonist NIR178; assay type: in vivo; details: NIR178 p.o. 4 days on and 3 days off at either 50 or 200 mg/kg with isotype control 10 mg/kg
Experimental: Human ENTPD2-engineered B16LM3 clone B5 was established in female C57BL/6 mice by subcutaneous injection of 0.5×10^6 cells into the right flank of each mouse. Once tumors reached approximately 50 mm^3, mice were randomized according to tumor volume into treatment groups (n=8 per group). Mice received an intravenous (i.v.) treatment of either anti-ENTPD2 mAb1 at a final dose of 10/mg/kg or a non-specific human IgG1 isotype control 10 mg/kg on day 1 of study. NIR178 was administered per os (p.o.) for 4 days on and 3 days off, starting at the beginning of study at either 50 mg/kg or 200 mg/kg. All doses were adjusted to individual mouse body weights. The study was carried out for thirteen days post treatment initiation and tumor volumes were assessed every other day to assess efficacy.

[2] = target: T1, recombinant human ENTPD2 (residues 29-462) (Homo sapiens, UniProt Q9Y5L3); assay: Biochemical human ENTPD2 functional assay (Transcreener ADP2 TR-FRET); details: FIG. 15
T1 construct: residues 29-462 of human or cyno ENTPD2 were cloned into expression vector; GP67 signal peptide (N); made in house; host or cells: High Five (Trichoplusia ni) insect cells, baculovirus
T1 sequence (Q9Y5L3 29-462): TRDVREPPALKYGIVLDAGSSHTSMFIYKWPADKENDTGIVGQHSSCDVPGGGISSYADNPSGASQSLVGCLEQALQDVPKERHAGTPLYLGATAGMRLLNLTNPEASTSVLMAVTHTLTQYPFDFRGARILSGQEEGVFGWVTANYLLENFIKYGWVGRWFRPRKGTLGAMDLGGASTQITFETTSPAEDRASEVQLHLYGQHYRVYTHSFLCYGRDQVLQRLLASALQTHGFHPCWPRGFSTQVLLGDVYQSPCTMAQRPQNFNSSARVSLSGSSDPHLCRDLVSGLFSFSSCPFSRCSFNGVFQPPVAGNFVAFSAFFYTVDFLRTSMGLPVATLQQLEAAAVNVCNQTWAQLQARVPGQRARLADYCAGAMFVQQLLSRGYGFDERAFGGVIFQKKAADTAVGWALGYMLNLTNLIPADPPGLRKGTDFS
Excerpt: Biochemical and cell-based functional assays were developed in-house to understand functional impact of anti-ENTPD2 Abs against purified extracellular domain of ENTPD2 (residues 29-462), as well as against the fully intact protein in the context of the native cell-based conformation. ENTPD2 hydrolyzes ATP to ADP, which can subsequently be detected using the HTRF Transcreener ADP2 TR-FRET Red Assay (BellBrook Labs, Madison, WI) where ENTPD2-produced ADP would compete with the ADP Tracer for binding to the anti-ADP-Tb antibody. The resulting signal is inversely proportional to the concentration of ADP in the sample. […]
HTRF signal (Emission at 620 nm and 665 nm) was assessed in both assays using the Envision plate reader in HTRF mode (Perkin Elmer, Waltham, MA). HTRF ratio was determined using the following formula: HTRF ratio=R=Emission at 665 nm/Emission at 620 nm×10,000. Subsequently % Residual Activity and % Inhibition were determined as follows:
Where R0% is the HTRF ratio of the negative control (0% enzyme activity), and R100% is the HTRF ratio of the positive control (100% enzyme activity). Data were analyzed in Microsoft Excel and graphed using GraphPad's Prism 7.0 software and IC50 values were obtained using non-linear regression, log (agonist) vs. response-variable slope (four parameters) analysis.

[3] = target: T2, ENTPD2 (Homo sapiens, UniProt Q9Y5L3); assay: Hybridoma mAb screen, cell-based assay for inhibition of ATP hydrolysis by ENTPD2; details: hybridoma-derived mAbs
T2 sequence (Q9Y5L3 1-495): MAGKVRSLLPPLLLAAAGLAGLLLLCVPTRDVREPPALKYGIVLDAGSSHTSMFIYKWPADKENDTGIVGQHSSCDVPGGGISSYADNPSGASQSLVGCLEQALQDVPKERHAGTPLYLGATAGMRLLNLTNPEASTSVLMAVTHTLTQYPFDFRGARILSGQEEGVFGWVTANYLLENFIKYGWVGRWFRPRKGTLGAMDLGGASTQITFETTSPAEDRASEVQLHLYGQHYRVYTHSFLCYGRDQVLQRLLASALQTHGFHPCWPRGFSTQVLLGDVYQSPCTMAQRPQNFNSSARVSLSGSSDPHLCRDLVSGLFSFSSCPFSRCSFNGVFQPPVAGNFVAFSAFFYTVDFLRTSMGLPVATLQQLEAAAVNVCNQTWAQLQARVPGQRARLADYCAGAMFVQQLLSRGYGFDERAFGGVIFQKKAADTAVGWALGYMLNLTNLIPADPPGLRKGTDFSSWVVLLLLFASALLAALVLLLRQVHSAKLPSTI
Excerpt: Hybridoma-derived mAbs were screened in a cell-based assay for inhibition of ATP hydrolysis by ENTPD2.

Nc1nc(-n2cccn2)nc(-n2cccn2)c1Br [NIR178, 5-bromo-2,6-di-(1H-pyrazol-1-yl)pyrimidine-4-amine]
anti-tumor efficacy, non-specific isotype control and NIR178 [1]: No significant anti-tumor efficacy

B1: mAb17: hybridoma-derived lead inhibitory anti-human ENTPD2 mAb (antibody, V domains shown)
VH: EVQLQQFGAELVKPGASVKISCKASGYTFTDYNMDWVKQSHGKSLEWIGDINPKYDISTYNQQFKGKATLTVDKSSSTAYMELRSLTSEDTAVYYCARRGFFLYYGINYYYFDVWGAGTTVTVSS
VL: QIVLTQSPAIMSASLGEEITLTCSASSSVSYIHWYQQKSGTSPTLLIYSTSNLASGVPSRFSGSGSGTFYSLTISSVEAEDAADYYCHQWSSYPWTFGGGTKLEIK
inhibition of the catalytic activity of the recombinant human ENTPD2 [2]: potently inhibit
inhibition of ATP hydrolysis by ENTPD2 (screen outcome) [3]: lead inhibitory
